Assay: soluble fraction after stress (log2 fold change); higher = more stays soluble; pooled small domains, quantitative proteomics
Settings: stress: 50 degC
Procedure, shortened: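 Custom libraries of small protein domains were pooled and measured in a high-throughput format, with quantitative proteomics as the read-out. Each library was stressed at 50°C. The value is the log2 fold change in the amount of each protein that stays soluble after stress, used as a measure of aggregation propensity; higher values mean more of the protein stays soluble.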

Point of comparison: “HMESAEQTGEELAARVNVLQTVSQALARELGREAAVEELADKMKMTVDEVKDIMKMAMDAMSM”, “soluble fraction (log2)” value 0.168. Against it:
- HMSKDKEKRTREHVLGILKKYDKVMTDKAFTVFKKMIKDESILEMELIKLINFIGERKEIRSKDVLAVVTE — within 0.2 log units, 0.281
- HMGDYERVPEYKGKLTSDLTMEDSQKFAFRFIWQNSDEDEGKIIDQDPPAGKSVAKGSEIVLYVSNG — within 0.2 log units, 0.35
- HMPLDPFVVDALRDEIINTIKQHEPRVDLQKVQVQPIYTQNRVNISVQYKIVGLPIVEDITFVLQRP — lower, -0.0764
- HMHDAKTQLQEEAARRGLPAPVYTRIGQEGPDHAPRFRVRADVGPHQAEAVAGSLKLAQAEAARAILRQMP — within 0.2 log units, 0.228
- HMENMSFGTKLYTWLYGKLVGSDEIGNKYYTNINDPSDLNAKRWVIFNGEIEASKIPPHWHAWLHKSIDK — lower, -0.646
- HMTNKYSSLVIGTVKTIMEEDQYKNLMGPPLKKEIIKQVDKFTNALPIEFDQNDKDFYVKKILINL — lower, -0.304
- HMEKTEQMQVILDYIARYGEINNEKVQEILGVKRTRAYTILKQMVENGFVTTNGRGEEKKYYSIR — lower, -0.336
- HMSTQGRRIEILRHLTQTKKKADVNFVELGRTFGTSDTTIRKDLDWLIKNEYWENHGEWKPTQAGLNMI — within 0.2 log units, 0.0347
- HMGARWPIQDRPLTATEAAAVRRMYAGGLPHGRSKNSVITEVWGDLSNKPKRLDWLNQALEGGA — within 0.2 log units, 0.184
- HMNEPMITEVKRINYGSIKEIAKNLDVFKGKNGTVIIDERTNTLILTDLSENIEKMLWSIEITD — lower, -0.896
- HMIDVGSKIRSLRKSKNISISTLAKNSDLSTGLISQIERNMVVPSIVAMWKISKALDINIGYFFE — lower, -2.42
- HMSNPADDVVDLLRQLRLPHMRAAAPELLATAKAQRWDPAEAIRALLTEELAGRQASSINARRK — lower, -0.406
- HMGTIEEYSKYLINQYFDSLKKPMDAMTTSEKIEIVKSLDKKGIFNLKGSVGELAKRFNTSEKTIYRYLSS — within 0.2 log units, 0.0367
- HMSISDEDFAKLLDFVKEKWDAGELDNAEDIKAAISEGEKEFGVSLDESTRTTLASALQQLN — lower, -0.134
- HMPRPLVAPMPGLIVRVTAVVGDSVDAGQGLVVMEAMKMENELRTTTAGVVKTVHVQPGVAVEKGALLIEF — lower, -0.893
- HMKETLSINSTDFEVRRSSRRKRISVGFDTGTETFFIAAPTKLAGTDILRILGPQISRLMDRLT — lower, -1.95
- HMENVQLRNFAIKATEAGIIKLSSDQRTFMWASNQKKLMTVPFDEHPYSAMAQFFKTDEGLAVFKSIEKKL — lower, -1.12
- HMTGQLTEEELKQRQERAMSNPEIQGILSDPVMRQVLQDMSTDPKAAAEHQRNPTIMAKIQKLINAGIVQV — within 0.2 log units, 0.11
- HMDPSDQLYTVPPSAEGLRLDLFLVQHVPHMTRALATQLTGAGQVRVNGRRAKKGDRLPSGAQVRLEQAP — lower, -0.256
- HMDTITDSYTLEKGKLRAKVMEYELPESKKKEYSATFEYRGVYYHMIGIIEKADFEEILKNLHFP — lower, -0.165
- HMGTAEDYLLPRRAEILSIIRDHEFANFDLIRRRFLAVNERTLRYDLKKLSDLGLIKKLGKTRGVYYRAAK — lower, -1.49
- HMRIWTISDLYKNVEDKKVSLAVFSEDNDSNKVNVLDINGEEHSVNLLKADLPTLVDLFRKNDVRFAVRSN — within 0.2 log units, 0.12
- HMSADKAEAAEASLKSFNLRLQAAAMEAGKTFAPVTADQYAEYKAAWGTYIRKGIEGLSESEKKTINVG — within 0.2 log units, -0.03
- HMTHANAALTPRHRLKVARLVVDEGWPVSEVAARFQVSWPTVKRWADRYRAGQSMQDRSSRP — lower, -1.13
- HMTVDAVALGRRVRHLRKQAGLTLDQLAERTGVSGSHLSLVENARREPRLSLVQRIAEVLGVPVEDL — lower, -1.17
- HMPIQLLSEKYMDEHWDELDKDEVSLYQNMSIRFLLKHEDDINWKLYSTNPFISIDTIDFFKDKISWVNI — lower, -2.57
- HMEWGEADFVRLDEALATLRTLSPRQAEVVDLRFFSELSLEETAATLGLSLATVKRDWSVARLYLQRALS — within 0.2 log units, 0.0743
- HMTRNGTVTFFNHDKGYGFIKDVLTQESVFVHINSLSEPINEQNKVSFEIEMGPRGSNAINVKLI — lower, -1.97
- HMAPAILTVQVKPDKIREIIGPGGKMIRMIQSETNTRVEVDDSGLVKIAAVSKEEGEAALKMVSDITME — within 0.2 log units, 0.134
- HMVGIAEAMKHIADEDYGDLSAIFKQIFSDTDGGRNFSDAIRTQMRSTDSSGLRKVLSTLIMSIEE — lower, -0.498
- HMTDPVLYEERDDIAIITINRPEKKNTLTDAVIQGIADGIDAATKSADVVAVVLRGAGDTLTAGYDLTA — lower, -0.132
- HMRKTYHVDAYQDDKWWVLQVQEMPNAISQVKSLDQADEWIREAINIVSNEPEDSFDVVIIPV — lower, -0.612
- HMGGLAHPASGEEMEHLFAHLEGELLKSGFLFPPDKAAGMMRNIRAMLTRADFTDQEVRTLRGMIVALSRG — lower, -1.66
- HMGSIRDIIVQYLSKFDDPQPAAKIVEYVQQYRDTTESSIRSSMGSGDQFVQFSGGLYGLKDKTYAAWYSI — lower, -0.321
- HMNINLNVGKRLKSIRQNKELSLDEVSNLTNVSKPALAQIERGASSPTINTLWKISKGLKVPLSYFLQE — lower, -0.0405
- HMAQPIPSGSDIREAREAAGMNLRDFARMVGGGAIGTWSHYETGKPIRVKSISPEVWQRVRDFILQHGK — lower, -0.417
- HMNSEAVQNVIDKISALPDDITAKAKSQIEEARAAYEALSDSEKARVTNYSTLVAAEKKLASVVKD — within 0.2 log units, 0.325
- HMSDDVELLGRLSDREVSVLQYLSQGYSNKQISEQMFISNKTVSTYKARLLLKLNAGSLVDLIEFAKRNTL — lower, -1.4
- HMPLEKGVVILDVTPSSAKVAVDGTSVETTYPLRLSAGLHQLSAEADGYDSITEYFKVETEKTTVTLDLSK — within 0.2 log units, 0.105
- HMKTLELIAAIRKRIAGGYAGADGRLPNIGEIAKDFSVSPMTAQKAVRALVEAGVLTSTRRKGVFLKQPAS — lower, -1.01
- HMFASSADGVEGLKTNPIFASTKEKSDAGKLLYTRYLAIGIFRMLELAKATDPKALEALVEAGG — within 0.2 log units, 0.0895
- HMVVADFQNYTVKPKENLYSLTKTSGLSQEELVALNPELKNGVQEGMVIKLPAAVKLMAQPE — within 0.2 log units, 0.15
- HMPELSITDADIIVAGGRGMGSAENFGLIRELAGLLGAAVGASRVVVDAEWVDQKHLIGQTGK — lower, -0.112
- HMRPNREKDMADLEKLAPFLLQMLTNYAQMTGDEKPLNAFITRFGYAAQIRDIQDFFMGPWHPA — higher, ≥ 0.62
- HMYKNLRAFRESLGMTQKDFAASLSIGLSTYNGYEVGAREPKSDFWIAVARKYGVTIDYLMGFSDDPHK — lower, -1.11
- HMLADTNIHTIALKHRLANEVVEQVRPFLPETATIRAYDNMLILKSDRATLANVEQLIKKLDT — within 0.2 log units, 0.0983
- HMNPYQDSILLWKSFDTPLTNEDFMGLSKEELRIARNEIYAAYGRIFTSQDLIDYFNSKPWYQGTTPA — lower, -0.202
- HMDNPKGNLQEAVQAKGNEPIEYRVLNVDGPDHAREFKIAVFIGGKRKGTGVGNSKKKAEEIAAEKAFKRM — within 0.2 log units, 0.127
- HMVINQRKLNLLSIYSSGSEKRAIILFPTGQTKFVKVGDTLDGGRVAAIGTSEIRYLKGGNNLVLRIPG — lower, -2.63
- HMSKMVEMSQEKSREKVARVKIEIQKMLDRKERVTVSGLERATGFSNSFFYRNEEVNQAVKEAQLKQ — within 0.2 log units, 0.0985
- HMESYWVVLRPMAAGTQIGANDLGYRSVALGAAAKNYLAASTNPIGSITRRRLVAGELLQGSSLTDDARA — lower, -0.873
- HMHPDHRTATVPDAAAGRRFDAVLAELFPQFSRSKLTTWIKSGEVLLNGEVPRPRDAVVGGETVSLNVVL — lower, -0.275
- HMGLKWVYYTNIEPDGNKINNQKLYDILKQKFVYPVIISRDELDSMELKDLTYDSYIDVEGRYFKPYNLD — lower, -2.23
- HMDPVILDINSVKALLGISNKADFMAELSRLVVTEGDKKMIIPLAKEVGIDNVAVYKRNEIENISNYK — lower, -0.1
- HMSLTYTGKFILNHNNIDQSSFNINIYLVNKQTIIQITKPFYGNVLNIKFNEENDLIISPKQFS — lower, -0.146
- HMSQDPLETYYPQWSAAVKQSNPDAEIIRDTDGKYYVEGMTKNRVAVIYENPHLVRLVNATTNVHVE — within 0.2 log units, 0.0542
- HMDKFKDVGARIREARKVQKLSQADLAERLQISTSHMSDIENGKKNIGLDIFMRLTEALQVSADWLL — lower, -0.124
- HMFVGVDMAVKEEIGKEGVAFTDLRPAGKVSIGDDVYDAVSETGAFITRGTSVRVLKYQAGQVYVVK — lower, -0.154
- HMEREKTYLMPDLIGRKAERVVPRLQASGFKVEDIRHVYYPGLEKGVIVRQSPPGGYPIQKRNLINLEVS — lower, -0.333
- HMVPHTTSMVAEVQERLFNLNYDPGPINGRMDQATITAITRFQRNFSLPQTGQIDEGFLNTLRDARL — lower, -0.981
- HMAELAKAKLDAAVQVALLKAGALDTDYLAYKLQGMDGVALDDKGSLTGWDTTLETLKSQYPTQFA — lower, -0.302
- HMNVDSLVGSEARVTAEIDNRKETGTAMVNGQEWTARAESDEEIYPVGTIVEIRKIQGVKLIVSTH — lower, -0.162
- HMYLPGERMRIKITALGSNPKQGVGYLPDGMMVVVDEAATLVGRFVEIEFVKFLQTNSGRMMFAKVAT — lower, -0.224
- HMSVTVPDVKRMQAEDAKALLSRYRLRSEVIDSVYVDNIPRGAVVEQIPRENSSVKENRIVFLTINSN — lower, -0.363
- HMGKNISEEDMLGYFKKIDLDYDAETKEVIAPTFRHDLFRLADLAEEVARFFGYDNIPTTLPSGEAT — within 0.2 log units, 0.0416
- HMPELPPHELLRALMVEHDIKQSELPEVGPQPVVSDVLAGKRALNLRQVAALAARFHVPMEVFT — lower, -0.153
- HMAQLPPTATARATSDVSGLTASAALRTLLEQGFVPQIHGSGKVSRQHPPAGTLLEPGSTIQLFLEPS — within 0.2 log units, 0.354
- HMSDHYEVLGVDRNATDDQIKKAYRRLARELHPDVNDAPESQEKFKLVTHAYEVLSDPDERRKYDMG — within 0.2 log units, 0.0925
- HMAMDYYAIGQRIRKFRKAHDWSQEELAEKVEISTTHMSHIETGSTKLSLPVLVSLANVLDVRTDDLLF — lower, -3.88
- HMDYAQAQRQAESAIALRPDVERLRLLLIYALQKQGKLREAEQAAADAIKSGLDTPALRQARANLRP — lower, -0.264
- HMNNIIYLIANKLDVGKRLDQFITIRTEFSRQRVINLIEDGYVKLNNKIINLKKYKIKGDEKIEITIPEIR — lower, -0.542
- HMHPMVEAYLADLDRALSGSDPREHAETMSAVREHLADAIAPDATAEQVRHALDELGPVEAIAAG — within 0.2 log units, 0.0172
- HMAPPIQQQVESLMNSFAKIGVTVPMLESRLQHAMSAVTANELVMLRKIGASIRDGFATVAEQFPA — within 0.2 log units, 0.0539
- HMLVIMKTGASEEEIGRVIERIEGEGLSAHVSRGTERTVIGVIGQGVDVHRIAGVLGGMSGVESLVPIS — within 0.2 log units, 0.0405
